For four molecules, binding result and Kd results are on record in article PMC4081063, “The conformational state of the nucleosome entry–exit site modulates TATA box-specific TBP binding”.

Data set [1] concerns the target T1, TBP (human TATA binding protein) (Homo sapiens, UniProt P20226 1-339). As to the kind of experiment: bulk FRET; 5-150 mM KCl; biphasic at low salt; similar at 25 and 37 C; 20 mM Tris pH 7.9, 4 mM MgCl2, 1 mM DTT, 5% glycerol, 5-150 mM KCl as indicated, 1 nM labeled DNA (1-5 nM in Results), 20 min; 25 C (37 C tested). The following applies: protein: recombinant; label: 5' donor and internal amino-dT acceptor 18 bp away, same strand; blunt.

Data set [2] deals with T1, TBP (human TATA binding protein). As to the kind of experiment: bulk FRET; 50 mM KCl, 4 mM Mg2+; 20 mM Tris pH 7.9, 4 mM MgCl2, 1 mM DTT, 5% glycerol, 5-150 mM KCl as indicated, 1 nM labeled DNA (1-5 nM in Results), 20 min; 25 C (37 C tested). Particulars: protein: recombinant; label: 5' ends labeled with donor (Atto-488) and acceptor (Atto-633 or Atto-647N); blunt.
Data set [3] has the same target. As to the kind of experiment: bulk FRET; 150 mM KCl, 4 mM Mg2+; 20 mM Tris pH 7.9, 4 mM MgCl2, 1 mM DTT, 5% glycerol, 5-150 mM KCl as indicated, 1 nM labeled DNA (1-5 nM in Results), 20 min; 25 C (37 C tested). Particulars: protein: recombinant, blunt.
The target is the same in data set [4]. The data set can be described thus: bulk FRET; similar to TATA-14E; stoichiometry 1.1 TBP:DNA; 20 mM Tris pH 7.9, 4 mM MgCl2, 1 mM DTT, 5% glycerol, 5-150 mM KCl as indicated, 1 nM labeled DNA (1-5 nM in Results), 20 min; 25 C (37 C tested). Particulars: protein: recombinant; label: 5' ends labeled with donor and acceptor; blunt.

T1 sequence (P20226 whole entry): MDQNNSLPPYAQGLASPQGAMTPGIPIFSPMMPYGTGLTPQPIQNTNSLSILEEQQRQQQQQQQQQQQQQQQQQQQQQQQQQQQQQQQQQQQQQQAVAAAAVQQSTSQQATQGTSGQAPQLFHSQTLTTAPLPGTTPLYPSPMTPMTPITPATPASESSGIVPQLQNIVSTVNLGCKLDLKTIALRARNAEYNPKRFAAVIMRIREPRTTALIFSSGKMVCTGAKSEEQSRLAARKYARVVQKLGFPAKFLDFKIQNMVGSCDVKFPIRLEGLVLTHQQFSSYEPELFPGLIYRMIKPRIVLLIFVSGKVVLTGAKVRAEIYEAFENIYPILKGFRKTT

B1: TATA-18I (dsDNA)
DNA 1: TGGGGTATAAAAGGGGGTGGACACGTG
DNA 2: CACGTGTCCACCCCCTTTTATACCCCA
As to B1, in data set [1], the binding result is recorded as “binds”.

B2: TATA-14E (dsDNA)
DNA 1: GGCTATAAAAGGGG
DNA 2: CCCCTTTTATAGCC
In general, Kd refers to the equilibrium constant for the complex coming apart. For the molecule B2, the Kd is 5 ± 1 nM in data set [2]; 10 ± 3 nM in data set [3] (label: 5' ends labeled with donor (Atto-488) and acceptor (Atto-633 or Atto-647N)).

B3: TATA-14I (dsDNA)
DNA 1: TGGTATAAAAGGGTGCGGACACGTG
DNA 2: CACGTGTCCGCACCCTTTTATACCA
Turning to B3, the Kd in data set [3] (label: 5' donor and internal amino-dT acceptor 14 bp away, same strand) was found to be 6 ± 1 nM.

B4: TATA-14E* (dsDNA)
DNA 1: GGGTATAAAAGGGG
DNA 2: CCCCTTTTATACCC
With B4, in data set [4], the binding result was “binds”.
